Reference: US20230287598A1

Assays:
[1] = molecular target: CXCR1 (UniProt P25024); assay: flow cytometry, CXCR1-U2OS / parental U2OS
[2] = molecular target: CXCR1 (UniProt P25024); assay: flow cytometry, 10 nM IgG, 2 ug/ml heparin sulfate, CXCR1-U2OS / parental U2OS
[3] = molecular target: CXCR1 (UniProt P25024); assay: flow cytometry, supernatant at 5 nM IgG

Chain of CXCR1 (P25024 whole entry): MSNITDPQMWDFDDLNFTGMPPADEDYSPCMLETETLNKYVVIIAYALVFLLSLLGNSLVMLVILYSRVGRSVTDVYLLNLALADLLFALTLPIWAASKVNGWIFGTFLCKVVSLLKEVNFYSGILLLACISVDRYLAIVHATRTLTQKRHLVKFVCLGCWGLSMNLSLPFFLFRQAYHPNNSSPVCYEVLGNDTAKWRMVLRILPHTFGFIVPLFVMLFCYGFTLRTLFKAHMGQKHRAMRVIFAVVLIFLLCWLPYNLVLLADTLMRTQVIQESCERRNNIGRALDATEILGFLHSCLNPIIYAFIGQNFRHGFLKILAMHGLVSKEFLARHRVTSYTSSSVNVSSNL

Binder	CXCR1/Parental Ratio [1]	CXCR1 specificity (CXCR1/parental ratio) [2]	Specific Binding (CXCR1-Cell median AFU / Parental Cell median AFU) [3]
VH4-34+CDR3-IL8_CDR1 Cow_CDR2 Cow / V1-47 IgG (antibody, part only; not given: V1-47 light chain, part only) VH: QVQLQQWGAGLLKPSETLSLTCTASGFSLSDKAVGWIRQPPGKGLEWLGSIDTGGNTGYNPSLKSRVTISVDTSKNQFSLKLSSVTAADTAVYYCTSVHQETKKYQSPRSAKELRCQCIKTYSKPFHPKFIKELRVIESGPHCANTEIIVKLSDGRELCLDPKENWVQRVVEKFLKRAENSGSGSYTYNYEWHVDVWGQGLLVTVSSAS	4.6		
VH4-34+CDR3-IL8_CDR1 G31D,Y32K / V1-47 IgG (antibody, part only; not given: V1-47 light chain, part only) VH: QVQLQQWGAGLLKPSETLSLTCAVYGGSFSDKYWSWIRQPPGKGLEWIGEINHSGSTNYNPSLKSRVTISVDTSKNQFSLKLSSVTAADTAVYYCTSVHQETKKYQSPRSAKELRCQCIKTYSKPFHPKFIKELRVIESGPHCANTEIIVKLSDGRELCLDPKENWVQRVVEKFLKRAENSGSGSYTYNYEWHVDVWGQGLLVTVSSAS	3.6		
VH4-34+CDR3-IL8_CDR1 Cow / V1-51 IgG (antibody, part only) heavy: QVQLQQWGAGLLKPSETLSLTCTASGFSLSDKAVGWIRQPPGKGLEWIGEINHSGSTNYNPSLKSRVTISVDTSKNQFSLKLSSVTAADTAVYYCTSVHQETKKYQSPRSAKELRCQCIKTYSKPFHPKFIKELRVIESGPHCANTEIIVKLSDGRELCLDPKENWVQRVVEKFLKRAENSGSGSYTYNYEWHVDVWGQGLLVTVSSAS light: QSVLTQPPSVSAAPGQKVTISCSGSSSNIGNNYVSWYQQLPGTAPKLLIYDNNKRPSGIPDRFSGSKSGTSATLGITGLQTGDEADYYCASAEDSSSNAVFGSGTTLTVLGQPKAAPSVTLFPPSSEELQANKATLVCLISDFYPGAVTVAWKADSSPVKAGVETTTPSKQSNNKYAASSYLSLTPEQWKSHRSYSCQVTHEGSTVEKTVAPTECS	2.4	7.2	
VH4-34+CDR3-IL8_CDR1 Cow_CDR2 E50S / V1-51 IgG (antibody, part only; not given: V1-51 light chain, part only) VH: QVQLQQWGAGLLKPSETLSLTCTASGFSLSDKAVGWIRQPPGKGLEWIGSINHSGSTNYNPSLKSRVTISVDTSKNQFSLKLSSVTAADTAVYYCTSVHQETKKYQSPRSAKELRCQCIKTYSKPFHPKFIKELRVIESGPHCANTEIIVKLSDGRELCLDPKENWVQRVVEKFLKRAENSGSGSYTYNYEWHVDVWGQGLLVTVSSAS	3.1		
VH4-34+CDR3-IL8_CDR1 G31D,Y32K_CDR2 E50S / V1-47 IgG (antibody, part only; not given: V1-47 light chain, part only) VH: QVQLQQWGAGLLKPSETLSLTCAVYGGSFSDKYWSWIRQPPGKGLEWIGSINHSGSTNYNPSLKSRVTISVDTSKNQFSLKLSSVTAADTAVYYCTSVHQETKKYQSPRSAKELRCQCIKTYSKPFHPKFIKELRVIESGPHCANTEIIVKLSDGRELCLDPKENWVQRVVEKFLKRAENSGSGSYTYNYEWHVDVWGQGLLVTVSSAS	1.4		
VH4-34+CDR3-IL8 / V1-47 IgG (antibody, part only; not given: V1-47 light chain, part only) VH: QVQLQQWGAGLLKPSETLSLTCAVYGGSFSGYYWSWIRQPPGKGLEWIGEINHSGSTNYNPSLKSRVTISVDTSKNQFSLKLSSVTAADTAVYYCTSVHQETKKYQSPRSAKELRCQCIKTYSKPFHPKFIKELRVIESGPHCANTEIIVKLSDGRELCLDPKENWVQRVVEKFLKRAENSGSGSYTYNYEWHVDVWGQGLLVTVSSAS	2.6		
VH4-34+CDR3-IL8_CDR1 Cow / V1-47 IgG (antibody, part only; not given: V1-47 light chain, part only) VH: QVQLQQWGAGLLKPSETLSLTCTASGFSLSDKAVGWIRQPPGKGLEWIGEINHSGSTNYNPSLKSRVTISVDTSKNQFSLKLSSVTAADTAVYYCTSVHQETKKYQSPRSAKELRCQCIKTYSKPFHPKFIKELRVIESGPHCANTEIIVKLSDGRELCLDPKENWVQRVVEKFLKRAENSGSGSYTYNYEWHVDVWGQGLLVTVSSAS	5.1		
VH4-34+CDR3-IL8 / V1-51 IgG (antibody, part only; not given: V1-51 light chain, part only) VH: QVQLQQWGAGLLKPSETLSLTCAVYGGSFSGYYWSWIRQPPGKGLEWIGEINHSGSTNYNPSLKSRVTISVDTSKNQFSLKLSSVTAADTAVYYCTSVHQETKKYQSPRSAKELRCQCIKTYSKPFHPKFIKELRVIESGPHCANTEIIVKLSDGRELCLDPKENWVQRVVEKFLKRAENSGSGSYTYNYEWHVDVWGQGLLVTVSSAS	2.9		
VH4-34+CDR3-IL8_CDR1 G31D,Y32K / V1-51 IgG (antibody, part only) heavy: QVQLQQWGAGLLKPSETLSLTCAVYGGSFSDKYWSWIRQPPGKGLEWIGEINHSGSTNYNPSLKSRVTISVDTSKNQFSLKLSSVTAADTAVYYCTSVHQETKKYQSPRSAKELRCQCIKTYSKPFHPKFIKELRVIESGPHCANTEIIVKLSDGRELCLDPKENWVQRVVEKFLKRAENSGSGSYTYNYEWHVDVWGQGLLVTVSSAS light: QSVLTQPPSVSAAPGQKVTISCSGSSSNIGNNYVSWYQQLPGTAPKLLIYDNNKRPSGIPDRFSGSKSGTSATLGITGLQTGDEADYYCASAEDSSSNAVFGSGTTLTVLGQPKAAPSVTLFPPSSEELQANKATLVCLISDFYPGAVTVAWKADSSPVKAGVETTTPSKQSNNKYAASSYLSLTPEQWKSHRSYSCQVTHEGSTVEKTVAPTECS	3		
VH4-34+CDR3-IL8_CDR1 Cow_CDR2 E50S / V1-47 IgG (antibody, part only; not given: V1-47 light chain, part only) VH: QVQLQQWGAGLLKPSETLSLTCTASGFSLSDKAVGWIRQPPGKGLEWIGSINHSGSTNYNPSLKSRVTISVDTSKNQFSLKLSSVTAADTAVYYCTSVHQETKKYQSPRSAKELRCQCIKTYSKPFHPKFIKELRVIESGPHCANTEIIVKLSDGRELCLDPKENWVQRVVEKFLKRAENSGSGSYTYNYEWHVDVWGQGLLVTVSSAS	2.6		

Second part, the binder after the results:

CXCR1/Parental Ratio [1]	CXCR1 specificity (CXCR1/parental ratio) [2]	Specific Binding (CXCR1-Cell median AFU / Parental Cell median AFU) [3]	Binder
3.3			VH4-34+CDR3-IL8_CDR2 E50S / V1-47 IgG (antibody, part only; not given: V1-47 light chain, part only) VH: QVQLQQWGAGLLKPSETLSLTCAVYGGSFSGYYWSWIRQPPGKGLEWIGSINHSGSTNYNPSLKSRVTISVDTSKNQFSLKLSSVTAADTAVYYCTSVHQETKKYQSPRSAKELRCQCIKTYSKPFHPKFIKELRVIESGPHCANTEIIVKLSDGRELCLDPKENWVQRVVEKFLKRAENSGSGSYTYNYEWHVDVWGQGLLVTVSSAS
2.5			VH4-34+CDR3-IL8_CDR2 Cow / V1-47 IgG (antibody, part only; not given: V1-47 light chain, part only) VH: QVQLQQWGAGLLKPSETLSLTCAVYGGSFSGYYWSWIRQPPGKGLEWLGSIDTGGNTGYNPSLKSRVTISVDTSKNQFSLKLSSVTAADTAVYYCTSVHQETKKYQSPRSAKELRCQCIKTYSKPFHPKFIKELRVIESGPHCANTEIIVKLSDGRELCLDPKENWVQRVVEKFLKRAENSGSGSYTYNYEWHVDVWGQGLLVTVSSAS
3			VH4-34+CDR3-IL8_CDR1 G31D,Y32K_CDR2 E50S / V1-51 IgG (antibody, part only; not given: V1-51 light chain, part only) VH: QVQLQQWGAGLLKPSETLSLTCAVYGGSFSDKYWSWIRQPPGKGLEWIGSINHSGSTNYNPSLKSRVTISVDTSKNQFSLKLSSVTAADTAVYYCTSVHQETKKYQSPRSAKELRCQCIKTYSKPFHPKFIKELRVIESGPHCANTEIIVKLSDGRELCLDPKENWVQRVVEKFLKRAENSGSGSYTYNYEWHVDVWGQGLLVTVSSAS
3.9			VH4-34+CDR3-IL8_CDR2 Cow / V1-51 IgG (antibody, part only; not given: V1-51 light chain, part only) VH: QVQLQQWGAGLLKPSETLSLTCAVYGGSFSGYYWSWIRQPPGKGLEWLGSIDTGGNTGYNPSLKSRVTISVDTSKNQFSLKLSSVTAADTAVYYCTSVHQETKKYQSPRSAKELRCQCIKTYSKPFHPKFIKELRVIESGPHCANTEIIVKLSDGRELCLDPKENWVQRVVEKFLKRAENSGSGSYTYNYEWHVDVWGQGLLVTVSSAS
1.8			VH4-34+CDR3-IL8_CDR2 E50S / V1-51 IgG (antibody, part only; not given: V1-51 light chain, part only) VH: QVQLQQWGAGLLKPSETLSLTCAVYGGSFSGYYWSWIRQPPGKGLEWIGSINHSGSTNYNPSLKSRVTISVDTSKNQFSLKLSSVTAADTAVYYCTSVHQETKKYQSPRSAKELRCQCIKTYSKPFHPKFIKELRVIESGPHCANTEIIVKLSDGRELCLDPKENWVQRVVEKFLKRAENSGSGSYTYNYEWHVDVWGQGLLVTVSSAS
		2	VH4-34+CDR3-IL8_CDR1-Cow_CDR2-E50S_Q5RQ6E / VL1-51 S2A, T5N, P8S, A12G, A13S, P14L, K46R, L47T, D51G, N52D, N53T IgG (antibody) VH: QVQLREWGAGLLKPSETLSLTCTASGFSLSDKAVGWIRQPPGKGLEWIGSINHSGSTNYNPSLKSRVTISVDTSKNQFSLKLSSVTAADTAVYYCTSVHQETKKYQSPRSAKELRCQCIKTYSKPFHPKFIKELRVIESGPHCANTEIIVKLSDGRELCLDPKENWVQRVVEKFLKRAENSGSGSYTYNYEWHVDVWGQGLLVTVSS light: QAVLNQPSSVSGSLGQKVTISCSGSSSNIGNNYVSWYQQLPGTAPRTLIYGDTKRPSGIPDRFSGSKSGTSATLGITGLQTGDEADYYCASAEDSSSNAVFGSGTTLTVLGQPKAAPSVTLFPPSSEELQANKATLVCLISDFYPGAVTVAWKADSSPVKAGVETTTPSKQSNNKYAASSYLSLTPEQWKSHRSYSCQVTHEGSTVEKTVAPTECS
		2	VH4-34+CDR3-IL8_CDR2 E50S / VL1-51 S2A, T5N, P8S, A12G, A13S, P14L, D51G, N52D, N53T IgG (antibody) VH: QVQLQQWGAGLLKPSETLSLTCAVYGGSFSGYYWSWIRQPPGKGLEWIGSINHSGSTNYNPSLKSRVTISVDTSKNQFSLKLSSVTAADTAVYYCTSVHQETKKYQSPRSAKELRCQCIKTYSKPFHPKFIKELRVIESGPHCANTEIIVKLSDGRELCLDPKENWVQRVVEKFLKRAENSGSGSYTYNYEWHVDVWGQGLLVTVSSAS light: QAVLNQPSSVSGSLGQKVTISCSGSSSNIGNNYVSWYQQLPGTAPKLLIYGDTKRPSGIPDRFSGSKSGTSATLGITGLQTGDEADYYCASAEDSSSNAVFGSGTTLTVLGQPKAAPSVTLFPPSSEELQANKATLVCLISDFYPGAVTVAWKADSSPVKAGVETTTPSKQSNNKYAASSYLSLTPEQWKSHRSYSCQVTHEGSTVEKTVAPTECS
